In patent US11932673B2, “Sodium channel inhibitors” (priority 2017, dated 2024):

Key:
human Nav1.7 [1] = molecular target: T1, human Nav1.7 (Homo sapiens, UniProt Q15858); assay: QPatch patch-clamp on CHO cells stably expressing human Nav1.7, single application (Example 19); type: cell-based; details: 20 minutes application; run-down of external solution control subtracted
Procedure: The effect of these KnotBodies on cells expressing human Nav1.7 (huNav1.7) channel was assessed using QPatch automated patch-clamp platform (Sophion). For the testing of Nav1.7 ion channel currents, CHO cells stably expressing human Nav1.7 (GenBank accession number NM 002977; cell line catalogue number CT6003, Charles River Discovery, Cleveland, USA) were subjected to the QPatch electrophysiology assay in the presence or absence of the KnotBody fusions or the antibody isotypes (negative controls). Internal and external physiological solutions were freshly prepared prior to the assay. The extracellular solution contained 145 mM NaCl, 4 mM KCl, 2 mM CaCl2, 1 mM MgCl2, 10 mM HEPES and 10 mM glucose; the pH was adjusted to 7.4 with NaOH; the osmolarity was ˜305 mOsm/L. The intracellular solution contained: KF (120 mM), KCl (20 mM), HEPES (10 mM) EGTA (10 mM); the pH was adjusted to 7.2 with KOH; osmolarity was ˜300 mOsm/L.
A series of depolarising voltage (channel activating) pulses were used to monitor the channel currents upon adding control (extracellular solution) to define a control baseline of current activity. To these measured control channel currents KnotBody or parental antibody isotypes (control molecules) were applied to the external bathing solution. The parental KnotBody KB_A12 (with trypsin inhibitor knottin EETI-II at CDR2) were used as test molecule isotype controls for the testing. […] The elicited, maximum outward current values measured during the −10 mV activating step for each solution period (a control, baseline level of current was determined at 10 minutes after application of the control external recording solution and a test level of current was determined after 20 minutes of application of KnotBody or its isotype) and average inhibition was determined between the current from the 10 minute baseline control current and the subsequent 20 minute KnotBody application. […] The average inhibition values (with external control reduction subtracted) for KnotBodies and isotypes was calculated.

human Nav1.7 [2] = molecular target: T1, human Nav1.7; assay: QPatch patch-clamp on CHO cells stably expressing human Nav1.7, four-point concentration-response (Example 21); type: cell-based; details: every 15-minute application of equivalent concentrations
Procedure: The effect of these KnotBodies on cells expressing human Nav1.7 (huNav1.7) channel was then assessed using QPatch automated patch-clamp platform (Sophion). For the testing of Nav1.7 ion channel currents, CHO cells stably expressing human Nav1.7 (GenBank accession number NM 002977; cell line catalogue number CT6003, Charles River Discovery, Cleveland, USA) were subjected to the QPatch electrophysiology assay in the presence or absence of the KnotBody fusions or the antibody isotypes (negative controls). Internal and external physiological solutions were freshly prepared prior to the assay. […] To these measured control currents four ascending concentrations (0.37, 1.1, 3.3 and 10 μM) of KnotBody or parental antibody isotypes (control molecules) were applied to the external bathing solution containing 0.1% BSA. […] The elicited, maximum outward current values measured during the −10 mV activating step for each solution period (a control, baseline level of current was determined at 15 minutes after application of the control external recording solution and a test level of current was determined after 15 minutes of application of each concentration of KnotBody or its isotype control) and average inhibition was determined. […] From these concentration-response curves IC50 values were calculated.

T1 sequence (Q15858 other isoform, or with tags, fused parts or gaps): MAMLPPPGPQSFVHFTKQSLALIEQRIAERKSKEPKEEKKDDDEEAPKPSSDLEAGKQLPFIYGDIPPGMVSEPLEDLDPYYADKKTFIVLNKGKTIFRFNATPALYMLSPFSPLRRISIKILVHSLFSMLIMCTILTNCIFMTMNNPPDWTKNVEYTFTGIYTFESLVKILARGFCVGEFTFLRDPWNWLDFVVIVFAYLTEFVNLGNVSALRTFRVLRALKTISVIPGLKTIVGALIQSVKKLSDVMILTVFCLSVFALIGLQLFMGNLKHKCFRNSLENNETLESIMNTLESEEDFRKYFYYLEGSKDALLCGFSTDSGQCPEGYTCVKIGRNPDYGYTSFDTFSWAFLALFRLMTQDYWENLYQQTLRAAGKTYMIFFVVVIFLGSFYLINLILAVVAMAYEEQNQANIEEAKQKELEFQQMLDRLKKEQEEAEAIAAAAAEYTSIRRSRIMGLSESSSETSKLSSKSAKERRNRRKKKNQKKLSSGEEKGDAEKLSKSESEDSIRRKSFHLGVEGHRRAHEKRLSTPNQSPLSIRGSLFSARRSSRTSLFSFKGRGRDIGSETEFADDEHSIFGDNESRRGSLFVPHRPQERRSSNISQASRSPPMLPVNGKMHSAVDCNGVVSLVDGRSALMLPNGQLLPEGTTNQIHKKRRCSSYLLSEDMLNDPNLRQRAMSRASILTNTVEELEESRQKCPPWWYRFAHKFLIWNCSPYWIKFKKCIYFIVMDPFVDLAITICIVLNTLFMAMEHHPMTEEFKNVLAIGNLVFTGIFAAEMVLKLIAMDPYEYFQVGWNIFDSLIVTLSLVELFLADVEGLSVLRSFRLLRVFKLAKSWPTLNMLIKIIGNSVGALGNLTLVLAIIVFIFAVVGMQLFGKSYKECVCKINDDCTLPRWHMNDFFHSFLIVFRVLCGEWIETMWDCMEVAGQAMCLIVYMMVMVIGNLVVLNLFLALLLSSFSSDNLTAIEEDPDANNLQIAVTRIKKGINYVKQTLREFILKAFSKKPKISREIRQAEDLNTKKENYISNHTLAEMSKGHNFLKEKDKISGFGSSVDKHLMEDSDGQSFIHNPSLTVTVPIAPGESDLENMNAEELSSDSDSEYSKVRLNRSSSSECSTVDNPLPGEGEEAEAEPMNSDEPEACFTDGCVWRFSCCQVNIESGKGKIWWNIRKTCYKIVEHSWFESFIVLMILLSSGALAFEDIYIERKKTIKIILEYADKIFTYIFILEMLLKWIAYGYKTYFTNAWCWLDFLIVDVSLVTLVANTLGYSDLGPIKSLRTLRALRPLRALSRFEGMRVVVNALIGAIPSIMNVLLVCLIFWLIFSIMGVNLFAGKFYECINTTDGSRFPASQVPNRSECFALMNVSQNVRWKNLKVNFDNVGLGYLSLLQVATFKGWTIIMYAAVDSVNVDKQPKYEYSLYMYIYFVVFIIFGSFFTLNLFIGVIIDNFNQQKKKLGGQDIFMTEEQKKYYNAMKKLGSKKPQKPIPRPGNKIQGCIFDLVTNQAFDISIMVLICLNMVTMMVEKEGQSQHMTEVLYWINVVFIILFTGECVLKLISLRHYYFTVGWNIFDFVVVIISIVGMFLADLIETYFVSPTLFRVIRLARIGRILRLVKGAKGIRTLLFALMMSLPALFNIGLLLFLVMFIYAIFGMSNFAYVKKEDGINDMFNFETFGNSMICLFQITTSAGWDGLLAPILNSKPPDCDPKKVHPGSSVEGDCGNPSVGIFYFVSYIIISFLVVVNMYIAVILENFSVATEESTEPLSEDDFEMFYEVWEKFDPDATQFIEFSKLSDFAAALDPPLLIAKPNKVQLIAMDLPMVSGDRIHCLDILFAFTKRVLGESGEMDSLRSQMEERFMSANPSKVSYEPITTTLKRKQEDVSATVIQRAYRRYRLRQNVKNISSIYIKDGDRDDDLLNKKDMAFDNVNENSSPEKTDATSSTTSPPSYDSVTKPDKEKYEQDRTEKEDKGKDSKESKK

B1: KB_A12: EETI-II VL CDR2 KnotBody, D1A12 VH, VL SEQ ID NO: 105/373; parental/isotype control (antibody, V domains shown)
VH: EVQLVESGGGLVRPGGSLRLSCAASGFTFSSYAMSWVRQAPGKGLEWVSAISGSGGSTYYADSVKGRFTISRDNTKNSLYLQMTSLRADDTAFYYCVKDFGPGYGTGWFDYWGPGTLVTVSS
VL: QSVLTQPPSVSEAPRQRVTITCSGSSSNIGNNAVNWYQQLPGKAPKLLIYAAGRCPRILMRCKQDSDCLAGCVCGPNGFCGANSGVSDRFSAAKSGTSASLAINGLRSEDEADYYCAAWDDSLNGYVFGTGTKLTVLG
Q: What does the source list for B1?
A: inhibition in measured Nav1.7 current (human Nav1.7 [1]): small inhibition in measured current, which was not statistically significant; cumulative current loss (human Nav1.7 [2]): ~5%
